Columns and labels:
31 = experiment: fluorescence polarization; without insulin
31 + insulin = experiment: fluorescence polarization; Kapp, with 2.5 uM insulin

Kd 31: 42 nM
Kd (31 + insulin): 280 nM
B1: IDE (enzyme)
chain: MNNPAIKRIGNHITKSPEDKREYRGLELANGIKVLLISDPTTDKSSAALDVHIGSLSDPPNIAGLSHFLQHMLFLGTKKYPKENEYSQFLSEHAGSSNAFTSGEHTNYYFDVSHEHLEGALDRFAQFFLSPLFDESAKDREVNAVDSEHEKNVMNDAWRLFQLEKATGNPKHPFSKFGTGNKYTLETRPNQEGIDVRQELLKFHSAYYSSNLMAVVVLGRESLDDLTNLVVKLFSEVENKNVPLPEFPEHPFQEEHLKQLYKIVPIKDIRNLYVTFPIPDLQKYYKSNPGHYLGHLIGHEGPGSLLSELKSKGWVNTLVGGQKEGARGFMFFIINVDLTEEGLLHVEDIILHMFQYIQKLRAEGPQEWVFQELKDLNAVAFRFKDKERPRGYTSKIAGILHYYPLEEVLTAEYLLEEFRPDLIEMVLDKLRPENVRVAIVSKSFEGKTDRTEEWYGTQYKQEAIPDEVIKKWQNADLNGKFKLPTKNEFIPTNFEILPLEKEATPYPALIKDTAMSKLWFKQDDKFFLPKANLNFEFFSPFAYVDPLHSNMAYLYLELLKDSLNEYAYAAELAGLSYDLQNTIYGMYLSVKGYNDKQPILLKKIIEKMATFEIDEKRFEIIKEAYMRSLNNFRAEQPHQHAMYYLRLLMTEVAWTKDELKEALDDVTLPRLKAFIPQLLSRLHIEALLHGNITKQAALGIMQMVEDTLIEHAHTKPLLPSQLVRYREVQLPDRGWFVYQQRNEVHNNSGIEIYYQTDMQSTSENMFLELFAQIISEPAFNTLRTKEQLGYIVFSGPRRANGIQGLRFIIQSEKPPHYLESRVEAFLITMEKSIEDMTEEAFQKHIQALAIRRLDKPKKLSAESAKYWGEIISQQYNFDRDNTEVAYLKTLTKEDIIKFYKEMLAVDAPRRHKVSVHVLAREMDSNPVVGEFPAQNDINLSQAPALPQPEVIQNMTEFKRGLPLFPLVKPHINFMAAKL

Source: US20160282364A1 (published 2016)
